Bridge positions count the residues as written; N and C are the ends. Square brackets hold non-standard residues; d marks the D form. Ends that are not written are not given here. * marks the point of attachment. Acetyl(2-(4-imidazolyl)) = O=C(Cc1c[nH]cn1)*; Aib = CC(C)(N)C(=O)O
What was measured:
Assay in all cases: cell-based or functional assay
human GLP-1 receptor = human GLP-1 receptor (human, UniProt P43220 24-463)
human GIP receptor = target: T1, human GIP receptor (human, UniProt P48546 22-466)
T1 sequence (looked up): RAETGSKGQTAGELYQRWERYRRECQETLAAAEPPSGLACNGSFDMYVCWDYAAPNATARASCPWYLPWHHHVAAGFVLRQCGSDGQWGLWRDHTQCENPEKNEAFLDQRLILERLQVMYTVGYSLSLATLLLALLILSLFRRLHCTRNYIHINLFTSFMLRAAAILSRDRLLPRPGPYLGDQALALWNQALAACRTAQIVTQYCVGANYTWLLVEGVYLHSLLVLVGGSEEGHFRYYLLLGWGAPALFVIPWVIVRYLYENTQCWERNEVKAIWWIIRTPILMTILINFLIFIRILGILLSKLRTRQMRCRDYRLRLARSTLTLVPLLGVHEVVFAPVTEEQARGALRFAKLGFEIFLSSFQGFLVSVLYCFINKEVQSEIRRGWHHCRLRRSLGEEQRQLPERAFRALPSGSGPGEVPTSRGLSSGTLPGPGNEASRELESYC

human GCG receptor = human GCG receptor (human, UniProt P47871 26-477)
Sequence of human GCG receptor (P47871 26-477): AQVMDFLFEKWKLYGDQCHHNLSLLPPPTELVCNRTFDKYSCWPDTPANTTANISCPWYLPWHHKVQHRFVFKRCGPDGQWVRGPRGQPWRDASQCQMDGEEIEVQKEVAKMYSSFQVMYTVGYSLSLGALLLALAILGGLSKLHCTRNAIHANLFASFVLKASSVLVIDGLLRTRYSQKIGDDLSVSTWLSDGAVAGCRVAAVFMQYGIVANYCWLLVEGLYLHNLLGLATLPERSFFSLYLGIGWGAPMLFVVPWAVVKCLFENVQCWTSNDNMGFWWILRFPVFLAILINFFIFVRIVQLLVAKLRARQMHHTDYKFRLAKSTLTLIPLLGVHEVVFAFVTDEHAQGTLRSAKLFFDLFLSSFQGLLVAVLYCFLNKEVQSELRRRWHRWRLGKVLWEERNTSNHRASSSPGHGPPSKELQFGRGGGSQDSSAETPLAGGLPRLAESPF

[Acetyl(2-(4-imidazolyl))][Aib]QGTFTSDYSIAMDEKHCKDFVNWLLNTK (bridge 16-20; not fully specified) [triple agonist of SEQ ID NO: 60] was tested, and the “In vitro activity (%) compared with native peptide, vs GLP-1” value (from here on “In vitro activity (%) … vs GLP-1”) (human GLP-1 receptor) was 106%, the “In vitro activity (%) compared with native peptide, vs GIP” value (from here on “In vitro activity (%) … vs GIP”) (human GIP receptor) was 8.2% and the “In vitro activity (%) compared with native peptide, vs Glucagon” value (“In vitro activity (%) … vs Glucagon” below) (human GCG receptor) was less than 0.1%.

For [Acetyl(2-(4-imidazolyl))][Aib]QGTFTSDYSIAMDEIACKDFVNWLLNTK (bridge 16-20; not fully specified) [triple agonist of SEQ ID NO: 61], the “In vitro activity (%) … vs GLP-1” value (human GLP-1 receptor) was 59.8%, the “In vitro activity (%) … vs GIP” value (human GIP receptor) was 2.8% and the “In vitro activity (%) … vs Glucagon” value (human GCG receptor) was less than 0.1%.

[Acetyl(2-(4-imidazolyl))][Aib]QGTFTSDKSKYLDERAAQDFVQWLLDGGPSSGAPPPS (not fully specified) [triple agonist of SEQ ID NO: 62] was tested, and the “In vitro activity (%) … vs GLP-1” value (human GLP-1 receptor) was 5.2%, the “In vitro activity (%) … vs GIP” value (human GIP receptor) was less than 0.1% and the “In vitro activity (%) … vs Glucagon” value (human GCG receptor) was less than 0.1%.

With [Acetyl(2-(4-imidazolyl))][Aib]QGTFTSDCSKYLDERAAQDFVQWLLDGGPSSGAPPPS (not fully specified) [triple agonist of SEQ ID NO: 63] the “In vitro activity (%) … vs GLP-1” value (human GLP-1 receptor) was 15.3%, the “In vitro activity (%) … vs GIP” value (human GIP receptor) was less than 0.1% and the “In vitro activity (%) … vs Glucagon” value (human GCG receptor) was less than 0.1%.

In the case of Y[Aib]QGTFTSDYSKYLDECAAKEFVQWLLDHHPSSGQPPPS (bridge 16-20) [triple agonist of SEQ ID NO: 64], the “In vitro activity (%) … vs GLP-1” value (human GLP-1 receptor) is reported as 64.6%, the “In vitro activity (%) … vs GIP” value (human GIP receptor) is reported as 92.9% and the “In vitro activity (%) … vs Glucagon” value (human GCG receptor) is reported as 60.1%.

For H[Aib]QGTFTSDVSKYLDGQAAKEFVAWLLKGC [triple agonist of SEQ ID NO: 7], the “In vitro activity (%) … vs GLP-1” value (human GLP-1 receptor) was 13.7%, the “In vitro activity (%) … vs GIP” value (human GIP receptor) was less than 0.1% and the “In vitro activity (%) … vs Glucagon” value (human GCG receptor) was less than 0.1%.

For H[Aib]QGTFTSDYSKCLDEKRAKEFVQWLLDHHPSSGQPPPS (bridge 16-20) [triple agonist of SEQ ID NO: 65], the “In vitro activity (%) … vs GLP-1” value (human GLP-1 receptor) was 95.4%, the “In vitro activity (%) … vs GIP” value (human GIP receptor) was 11.6% and the “In vitro activity (%) … vs Glucagon” value (human GCG receptor) was 25.2%.

In the case of Y[Aib]QGTFTSDYSKYLDECRAKDFVQWLLDHHPSSGQPPPS (bridge 16-20) [triple agonist of SEQ ID NO: 66], the “In vitro activity (%) … vs GLP-1” value (human GLP-1 receptor) is reported as 15.8%, the “In vitro activity (%) … vs GIP” value (human GIP receptor) is reported as 17.2% and the “In vitro activity (%) … vs Glucagon” value (human GCG receptor) is reported as 172%.

With Y[Aib]QGTFTSDYSKYLDECAAKDFVQWLLDHHPSSGQPPPS (bridge 16-20) [triple agonist of SEQ ID NO: 67] the “In vitro activity (%) … vs GLP-1” value (human GLP-1 receptor) was 28.5%, the “In vitro activity (%) … vs GIP” value (human GIP receptor) was 39.8% and the “In vitro activity (%) … vs Glucagon” value (human GCG receptor) was 46.2%.

Y[Aib]QGTFTSDYSKCLDEKAAKEFVQWLLDHHPSSGQPPPS (bridge 16-20) [triple agonist of SEQ ID NO: 68] was tested, and the “In vitro activity (%) … vs GLP-1” value (human GLP-1 receptor) was 27.9%, the “In vitro activity (%) … vs GIP” value (human GIP receptor) was 107% and the “In vitro activity (%) … vs Glucagon” value (human GCG receptor) was 8.8%.

With Y[Aib]QGTFTSDYSKCLDERAAKEFVQWLLDHHPSSGQPPPS (bridge 16-20) [triple agonist of SEQ ID NO: 69] the “In vitro activity (%) … vs GLP-1” value (human GLP-1 receptor) was 24.3%, the “In vitro activity (%) … vs GIP” value (human GIP receptor) was 62.8% and the “In vitro activity (%) … vs Glucagon” value (human GCG receptor) was 9.6%.

For Y[Aib]QGTFTSDYSKCLDEKRAKDFVQWLLDHHPSSGQPPPS (bridge 16-20) [triple agonist of SEQ ID NO: 70], the “In vitro activity (%) … vs GLP-1” value (human GLP-1 receptor) was 15.1%, the “In vitro activity (%) … vs GIP” value (human GIP receptor) was 64.4% and the “In vitro activity (%) … vs Glucagon” value (human GCG receptor) was 71.3%.

In the case of Y[Aib]QGTFTSDYSKYLDERACKDFVQWLLDHHPSSGQPPPS (bridge 16-20) [triple agonist of SEQ ID NO: 71], the “In vitro activity (%) … vs GLP-1” value (human GLP-1 receptor) is reported as 90.1%, the “In vitro activity (%) … vs GIP” value (human GIP receptor) is reported as 94.7% and the “In vitro activity (%) … vs Glucagon” value (human GCG receptor) is reported as 12.7%.

In the case of Y[Aib]QGTFTSDCSKYLDERAAKDFVQWLLDHHPSSGQPPPS (bridge 16-20) [triple agonist of SEQ ID NO: 72], the “In vitro activity (%) … vs GLP-1” value (human GLP-1 receptor) is reported as 11.5%, the “In vitro activity (%) … vs GIP” value (human GIP receptor) is reported as 1.6% and the “In vitro activity (%) … vs Glucagon” value (human GCG receptor) is reported as 1%.

In the case of {Acetyl(2-(4-imidazolyl))}-[Aib]QGTFTSDYSKYLDECRAKEFVQWLLDHHPSSGQPPPS (bridge 15-19) [triple agonist of SEQ ID NO: 73], the “In vitro activity (%) … vs GLP-1” value (human GLP-1 receptor) is reported as 22.6%, the “In vitro activity (%) … vs GIP” value (human GIP receptor) is reported as 3% and the “In vitro activity (%) … vs Glucagon” value (human GCG receptor) is reported as 5.4%.

With {Acetyl(2-(4-imidazolyl))}-[Aib]QGTFTSDYSKCLDEKRAKEFVQWLLDHHPSSGQPPPS (bridge 15-19) [triple agonist of SEQ ID NO: 74] the “In vitro activity (%) … vs GLP-1” value (human GLP-1 receptor) was 12.9%, the “In vitro activity (%) … vs GIP” value (human GIP receptor) was 1% and the “In vitro activity (%) … vs Glucagon” value (human GCG receptor) was 0.9%.

In the case of H[Aib]QGTFTSDVSKYLDGQAAQEFVAWLLKGC [triple agonist of SEQ ID NO: 8], the “In vitro activity (%) … vs GLP-1” value (human GLP-1 receptor) is reported as 14.2%, the “In vitro activity (%) … vs GIP” value (human GIP receptor) is reported as less than 0.1% and the “In vitro activity (%) … vs Glucagon” value (human GCG receptor) is reported as 0.1%.

With Y[Aib]QGTFTSDYSKYLDEKAAKEFVQWLLDHHPSSGQPPPSC (bridge 16-20) [triple agonist of SEQ ID NO: 75] the “In vitro activity (%) … vs GLP-1” value (human GLP-1 receptor) was 35.1%, the “In vitro activity (%) … vs GIP” value (human GIP receptor) was 18% and the “In vitro activity (%) … vs Glucagon” value (human GCG receptor) was 8.5%.

Y[Aib]QGTFTSDYSKYLDEKRAKDFVQWLLDHHPSSGQPPPSC (bridge 16-20; also: ring between positions 16 and 20, type not given here) [triple agonist of SEQ ID NO: 76] was tested, and the “In vitro activity (%) … vs GLP-1” value (human GLP-1 receptor) was 10.3%, the “In vitro activity (%) … vs GIP” value (human GIP receptor) was 11.7% and the “In vitro activity (%) … vs Glucagon” value (human GCG receptor) was 47.6%.

In the case of Y[Aib]QGTFTSDYSKYLDEKAAKDFVQWLLDHHPSSGQPPPSC (bridge 16-20; also: ring between positions 16 and 20, type not given here) [triple agonist of SEQ ID NO: 77], the “In vitro activity (%) … vs GLP-1” value (human GLP-1 receptor) is reported as 38.7%, the “In vitro activity (%) … vs GIP” value (human GIP receptor) is reported as 35.5% and the “In vitro activity (%) … vs Glucagon” value (human GCG receptor) is reported as 12.2%.

With H[Aib]QGTFTSDYSKYLDEKRQKEFVQWLLDTKC (bridge 16-20; also: ring between positions 16 and 20, type not given here) [triple agonist of SEQ ID NO: 78] the “In vitro activity (%) … vs GLP-1” value (human GLP-1 receptor) was 51%, the “In vitro activity (%) … vs GIP” value (human GIP receptor) was 0.12% and the “In vitro activity (%) … vs Glucagon” value (human GCG receptor) was 14%.

With H[Aib]EGTFTSDYSIAMDEIHQKDFVNWLLAQKC (bridge 16-20; not fully specified) [triple agonist of SEQ ID NO: 79] the “In vitro activity (%) … vs GLP-1” value (human GLP-1 receptor) was 41.5%, the “In vitro activity (%) … vs GIP” value (human GIP receptor) was 1.4% and the “In vitro activity (%) … vs Glucagon” value (human GCG receptor) was 4.9%.

B1: triple agonist of SEQ ID NO: 81 (peptide)
peptide: {Acetyl(2-(4-imidazolyl))}-[Aib]QGTFTSDYSKYLDEKRQKEFVQWLLNTC
modifications: bridge 15-19; numbers in words are those of the source; also: ring between positions 16 and 20, type not given here
B1 was tested, and the “In vitro activity (%) … vs GLP-1” value (human GLP-1 receptor) was 7.8%, the “In vitro activity (%) … vs GIP” value (human GIP receptor) was less than 0.1% and the “In vitro activity (%) … vs Glucagon” value (human GCG receptor) was 0.3%.

B2: triple agonist of SEQ ID NO: 82 (peptide)
peptide: {Acetyl(2-(4-imidazolyl))}-[Aib]QGTFTSDYSKYLDEKRQKEFVQWLLDTC
modifications: bridge 15-19; numbers in words are those of the source; also: ring between positions 16 and 20, type not given here
For B2, the “In vitro activity (%) … vs GLP-1” value (human GLP-1 receptor) was 9.5%, the “In vitro activity (%) … vs GIP” value (human GIP receptor) was less than 0.1% and the “In vitro activity (%) … vs Glucagon” value (human GCG receptor) was 1.1%.

In the case of [Acetyl(2-(4-imidazolyl))][Aib]EGTFTSDYSIAMDEIHQKDFVNWLLAQC (bridge 16-20; not fully specified) [triple agonist of SEQ ID NO: 83], the “In vitro activity (%) … vs GLP-1” value (human GLP-1 receptor) is reported as 47.3%, the “In vitro activity (%) … vs GIP” value (human GIP receptor) is reported as 0.4% and the “In vitro activity (%) … vs Glucagon” value (human GCG receptor) is reported as 1.3%.

B3: triple agonist of SEQ ID NO: 84 (peptide)
peptide: {Acetyl(2-(4-imidazolyl))}-[Aib]EGTFTSDYSIAMDEIHQKDFVDWLLAEC
modifications: bridge 15-19; numbers in words are those of the source; also: ring between positions 16 and 20, type not given here
In the case of B3, the “In vitro activity (%) … vs GLP-1” value (human GLP-1 receptor) is reported as 4.2%, the “In vitro activity (%) … vs GIP” value (human GIP receptor) is reported as less than 0.1% and the “In vitro activity (%) … vs Glucagon” value (human GCG receptor) is reported as less than 0.1%.

From patent US20230355720A1, “PHARMACEUTICAL COMPOSITION FOR PREVENTING OR TREATING BONE DISEASES, COMPRISING TRIPLE AGONIST OR CONJUGATE THEREOF HAVING ACTIVITY WITH RESPECT TO ALL OF GLUCAGON, GLP-1 AND GLP RECEPTORS” (HANMI PHARM. CO., LTD., priority 2020, published 2023)
